Data: publication PMC7290940

How the values were obtained:
Assay in all cases: SEC; single purified protein on Superdex 200 10/300 GL, apparent mass against protein standards
[1] = molecular target: full-length gp44 with C-terminal His6 tag (gp44–His), bacteriophage 80α (Staphylococcus aureus bacteriophage 80α)
[2] = molecular target: untagged gp44 of bacteriophage 80α (Staphylococcus aureus bacteriophage 80α)
[3] = molecular target: untagged CI immunity repressor of bacteriophage 80α (Staphylococcus aureus bacteriophage 80α)
[4] = molecular target: gp44-NTD-His (gp44 residues 1–271) (Staphylococcus aureus bacteriophage 80α)

**Q.** With “full-length gp44 with C-terminal His6 tag (gp44–His), bacteriophage 80α (natural protein)” as the substance, how does the stoichiometry N [1] read?
**A.** Its stoichiometry N is 2.

**Q.** “untagged gp44 of bacteriophage 80α (natural protein)” was tested. Which stoichiometry N [2] did it give?
**A.** The stoichiometry N was 2.

**Q.** With “untagged CI immunity repressor of bacteriophage 80α (natural protein)” as the substance, how does the stoichiometry N [3] read?
**A.** The stoichiometry N was 2.

**Q.** “gp44-NTD-His (gp44 residues 1–271) (domain or fragment)” was tested. Which stoichiometry N [4] did it give?
**A.** Its stoichiometry N is 2.
